US20210332138A1 (published 2021)
Read-outs that look alike come from different tables or passages of the source.

Tests used:
hPDL1-Fc fusion protein [1] = biological target: T1, hPDL1-Fc fusion protein (human, UniProt Q9NZQ7 19-238); assay: RBA; PD1 coated
hPDL1-Fc fusion protein [2] = biological target: T1, hPDL1-Fc fusion protein; assay: receptor blocking ELISA; hPDL1-Fc coated
hPDL1-Fc fusion protein [3] = biological target: T1, hPDL1-Fc fusion protein; assay: ELISA; FIG. 11C
hPDL1-Fc fusion protein [4] = biological target: T1, hPDL1-Fc fusion protein; assay: receptor blocking ELISA; hPD1-Fc coated
hPDL1-Fc fusion protein [5] = biological target: T1, hPDL1-Fc fusion protein; assay: RBA; PDL1 coated
hPDL1-Fc fusion protein [6] = biological target: T1, hPDL1-Fc fusion protein; assay: BIAcore
hPDL1-Fc fusion protein [7] = biological target: T1, hPDL1-Fc fusion protein; assay: ELISA; FIG. 11B
hPDL1-Fc fusion protein [8] = biological target: T1, hPDL1-Fc fusion protein; assay: ELISA
[9] = biological target: T2, hPDL1 expressed on 293T cells (human, UniProt Q9NZQ7 19-290); assay: FACS
[10] = biological target: T2, hPDL1 expressed on 293T cells; assay: FACS; remark: listed apart in the source

T1 sequence (Q9NZQ7 19-238): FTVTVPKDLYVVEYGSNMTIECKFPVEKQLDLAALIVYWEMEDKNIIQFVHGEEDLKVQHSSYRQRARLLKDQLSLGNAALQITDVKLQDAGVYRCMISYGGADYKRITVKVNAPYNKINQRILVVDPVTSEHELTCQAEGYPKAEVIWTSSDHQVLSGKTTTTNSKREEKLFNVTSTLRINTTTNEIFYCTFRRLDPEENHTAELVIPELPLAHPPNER
T2 sequence (Q9NZQ7 19-290): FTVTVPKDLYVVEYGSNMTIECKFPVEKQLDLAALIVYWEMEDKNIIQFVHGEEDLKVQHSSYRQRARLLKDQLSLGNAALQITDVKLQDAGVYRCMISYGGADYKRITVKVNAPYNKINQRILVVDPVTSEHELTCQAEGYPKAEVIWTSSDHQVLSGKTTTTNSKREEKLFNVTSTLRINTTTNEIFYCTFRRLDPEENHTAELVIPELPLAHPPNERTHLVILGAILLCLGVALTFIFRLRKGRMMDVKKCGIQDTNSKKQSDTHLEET

Row | Binder | IC50 (hPDL1-Fc fusion protein [1]) [nM] | IC50 (hPDL1-Fc fusion protein [2]) [nM] | EC50 (hPDL1-Fc fusion protein [3]) [nM] | IC50 (hPDL1-Fc fusion protein [4]) [nM] | IC50 (hPDL1-Fc fusion protein [5]) [nM] | Kd (hPDL1-Fc fusion protein [6]) [nM] | EC50 (hPDL1-Fc fusion protein [7]) [nM] | EC50 (hPDL1-Fc fusion protein [8]) [nM] | EC50 [9] [nM] | EC50 [10] [nM]
1 | full-length antibody 4-1E8 (antibody, V domains shown) VH: QIQLVQSGAEVKMPGASVTISCEASGYNFISYYIHWVRQAPGQGLEWMGFVVPSGGAAGYTQKFQGRLTVTRDTSTSTVYMDLNSLTSDDTAVYYCVREMSGGWFDFWGQGTLVTVSS VL: DIVMTQSPSSLSASVGDRVTITCRASQGIRNDLGWYQQKPGKAPKLLIYAASTLQSGVPSRFSGSGSGTDFTLTISSLQAEDVAVYYCQQYYSTPLTFGPGTKVDIK | 1.26 | 1.26 | 0.0247 | 1.53 | 1.53 | 4.46 | 0.0391 | 0.0391 | 0.356 | 
2 | full-length antibody 3-1E4 (antibody, V domains shown) VH: QIQLVQSGAEVKKPGSSVKVSCKASGGTFSSYAISWVRQAPGQGLEWMGGIIPIFGTANYAQKFQGRVTITADKSTSTAYMELSSLRSEDTAVYYCAGGGAVADNSYWGQGTLVTVSS VL: DIRMTQSPSSLSASVGDRVTITCRASQGIRNDLGWYQQKPGKAPKLLIYAASSLQSGVPSRFSGSGSGTDFTLTISSLQPEDFATYYCLQDYNYPRTFGQGTKVEIK | 92.7 | 92.7 |  | 16.6 | 16.6 |  | 0.9 | 0.9 | 3.15 | 
3 | full-length antibody 3-1B11 (antibody, V domains shown) VH: EVQLVESGGGLVQPGGSLRLSCAASGFTFSDYDMIWVRQAPGKGLEWVAVISYDGSNKYYADSVKGRFTISRDNSKNTLYLQMNSLRAEDTAVYYCAKEFFGAFDIWGQGTMVTVSS VL: SSELTQDPAVSVALGQTVTITCQGDSLNYYYANWFQLKPGQAPVLVLFGKNNRPSGIPDRFSGSYSGSTASLTITGAQAEDDADYYCNSRDSGGNPWVFGGGTKLTVL | 1.39 |  | 0.018 |  | 0.795 | 2.32 |  | 0.018 | 0.132 | 0.132
